From the supplement of paper PMC10567573

B1: HDAC6 (parent)
chain: QEGLLDRCVSFQARFAEKEELMLV
B2: RIPK4 (parent)
chain: RERMELLEEAKKMEMAKFRYILPV

Variants of: B1
Experiment: protein stability index of a GFP-peptide fusion (GPS, HEK-293T) (PSI 1-6); higher = more stable
Conditions: c terminus: a fixed tail appended
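Note: lentivirally expressed fusions sorted by FACS into six bins by GFP to DsRed ratio, PSI derived from sequencing read proportions per bin multiplied by bin number.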

Protein stability index: each site, then its substitutions
Q12: W 1.08
A13: C 1.4 | D 2.44 | E 1.31 | F 2.2 | G 1.85 | H 2.59 | I 1.47 | K 2.47 | L 1.38 | M 1.89 | N 1.89 | P 2.05 | Q 2.08 | R 1.93 | S 1.57 | T 2.03 | V 1.39 | W 2.2 | Y 1.76
R14: A 1.4 | C 2.21 | D 2.54 | E 2.57 | F 1.56 | G 2.07 | H 2.27 | I 2.35 | K 2.06 | L 1.7 | M 1.66 | N 2.41 | P 1.97 | Q 1.71 | S 1.9 | T 2.14 | V 1.38 | Y 2.24
F15: A 2.33 | C 2.36 | D 3.55 | E 2.91 | G 2.54 | H 2.4 | I 1.56 | K 3.13 | L 2.23 | M 2.16 | N 3.04 | P 3.02 | Q 2.55 | R 2.58 | S 2.9 | T 2.81 | V 2.49 | W 2.36 | Y 1.62
A16: C 1.48 | D 1.84 | E 2.6 | F 1.75 | G 1.62 | H 1.41 | I 2.31 | K 2.38 | L 1.07 | M 1.87 | N 1.97 | P 2.11 | Q 1.93 | R 2.62 | S 2.21 | T 1.74 | V 1.5 | W 1.03 | Y 1.65
E17: A 2.05 | C 1.73 | D 2.14 | F 1.53 | G 1.95 | H 1.49 | I 1.58 | K 1.72 | L 1.85 | M 1.4 | N 1.68 | P 1.73 | Q 2.05 | R 2.03 | S 1.7 | T 1.46 | V 1.21 | W 1.02 | Y 1.67
K18: A 1.98 | C 2.17 | D 1.79 | E 2.38 | F 2.51 | G 1.63 | H 1.44 | I 2.6 | L 1.49 | M 2.04 | N 1.77 | P 2.07 | Q 2.17 | R 1.45 | S 1.75 | T 2.66 | V 1.96 | W 2.1 | Y 1.78
E19: A 1.76 | C 1.63 | D 1.76 | F 1.98 | G 2.6 | H 2.14 | I 2 | K 1.9 | L 1.49 | M 1.58 | N 1.6 | P 2.18 | Q 1.67 | R 1.84 | S 2.14 | T 2.87 | V 1.49 | W 2.08 | Y 1.53
E20: A 2.37 | D 2.32 | F 2.98 | G 1.74 | H 2.52 | I 1.18 | K 1.96 | L 1.62 | M 1.37 | N 1.84 | P 2.01 | Q 1.86 | R 1.69 | S 2.24 | T 2.14 | V 1.72 | W 2.02 | Y 1.67
L21: A 4.12 | C 2.18 | D 4.3 | E 3.16 | F 1.98 | G 3.76 | H 2.45 | I 1.59 | K 3.17 | M 2.14 | N 3.78 | P 3.29 | Q 2.88 | R 3.06 | S 4.16 | T 2.73 | V 2.14 | W 2.03 | Y 2.17
M22: A 2.93 | C 3.01 | D 4.03 | E 4.27 | F 1.88 | G 3.27 | H 2.59 | I 1.92 | K 3.31 | L 2.03 | N 3.84 | P 3.99 | Q 2.81 | R 3.14 | S 3.43 | T 3.2 | V 1.92 | W 1.95 | Y 2.03
L23: A 3.4 | C 2.59 | D 4.37 | E 3.49 | F 1.96 | G 3.93 | H 2.57 | I 1.85 | K 3.55 | M 1.83 | N 3.82 | P 3.45 | Q 2.32 | R 3.35 | S 3.25 | T 2.98 | V 1.93 | W 1.89 | Y 2.14
V24: A 3.83 | C 2.63 | D 4.32 | E 4.18 | F 1.85 | G 3.62 | H 2.82 | I 2.17 | K 3.74 | L 2.21 | M 2.05 | N 3.42 | P 4.13 | Q 3.76 | R 3.31 | S 3.59 | T 3.82 | W 2.21 | Y 2.27

Variants of: B2
Experiment: as above
Conditions: c terminus: a fixed tail appended

Protein stability index of substitutions, site by site:
R1: A 3.83 | C 2.88 | D 4.22 | E 3.99 | F 3.47 | G 3.79 | H 4.5 | I 3.29 | K 4.16 | L 4.16 | M 3.98 | N 4.13 | P 3.85 | Q 3.9 | S 3.53 | T 3.13 | V 3.83 | W 2.5 | Y 2.9
E2: A 2.42 | C 1.34 | D 3.21 | F 2.27 | G 2.57 | H 2.75 | I 1.93 | L 2.57 | M 2.37 | N 3.59 | P 3.75 | Q 2.31 | R 2.67 | S 2.77 | V 2.81 | W 1.47 | Y 2.74
R3: A 3.48 | C 3.26 | D 3.63 | E 4.38 | F 2.58 | G 2.58 | H 3.89 | I 2.39 | L 2.3 | M 2.7 | N 3.18 | P 3.84 | Q 4.19 | S 3.85 | T 3.68 | V 2.42 | W 1.73 | Y 3.25
M4: A 3.99 | C 3.69 | D 4.17 | E 3.67 | G 5.3 | H 3.21 | I 3.08 | K 3.74 | N 3.94 | P 3.8 | Q 3.76 | S 3.59 | T 3.53 | V 2.88 | W 2.81 | Y 2.82
E5: A 2.9 | C 2.63 | F 2.81 | G 2.6 | H 1.99 | I 2.26 | K 2.36 | L 2.75 | M 3.12 | N 2.87 | P 3.01 | R 2.97 | S 2.11 | T 2.34 | V 2.29 | W 2.23 | Y 2.29
L6: A 3.19 | C 3.05 | D 4.56 | G 3.54 | H 3.87 | I 3.98 | K 3.88 | M 3.77 | N 3.66 | Q 3.08 | R 3.56 | S 3.19 | T 3.49 | V 2.9 | W 3 | Y 3.83
L7: A 3.35 | C 3.94 | D 3.43 | E 3.74
